Target: GST-Pin1 (human Pin1, full length, fused to GST) (human) (UniProt Q13526)
Assay: pull-down

GST-Pin1 (human Pin1, full length, fused to GST) (human), sequence (Q13526 whole entry, the tested form may be a part): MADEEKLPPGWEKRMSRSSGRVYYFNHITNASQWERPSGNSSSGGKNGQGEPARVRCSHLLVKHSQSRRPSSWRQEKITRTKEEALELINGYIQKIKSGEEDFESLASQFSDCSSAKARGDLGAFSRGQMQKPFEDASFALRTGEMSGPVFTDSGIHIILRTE

Substance “His6-DI-2 (Drosophila phosphatase inhibitor-2) (natural protein)” has a K0.5 of 0.3 µM.

With “His6-XI-2 (Xenopus phosphatase inhibitor-2) (natural protein)” the K0.5 was 0.3 µM.

Source: publication PMC3965691
